Laboratory results: the DeepSol protein solubility set

experiment: soluble on expression in E. coli; label from the status in PepcDB or PDB records

| Sequence | soluble on expression in E. coli |
| --- | --- |
| MGSDKIHHHHHHMSQAFLASENEQIKDYYEENGYVVVKNAVSLEKITDFINKYENFKISKNYYFRSQDTNRAEKLAINEKGFIERSILNPLELVYQKDFCRSSSNIICADSVSQILRTLTGKQKHTIWQTMFFDKSTGTVAHQDHYYLDSDPPGNLIACWYALEDIQEDAGAFFVVPKSHKGSVIPRKTDVPLFSDHEEYAKNIQKLINEQSYPIQPMLLEKGSVLFWHPYLIHGAFQNTNPKYSRKSFTAHFLPEGYSRLGISRVKPTVISTNPNILSWKKNLLHHAEASIRHWRYWLQVNLRPKSQRPYLEMRSSEYLDIK | not soluble |
| LAIPEKRLSNNIILTKLKIALNLQAEQIISLLESVDFRISKPELSAFSRKVDHQHYRECKDQVLRNLLHAIDKTYHV | not soluble |
| MNNQYLQFVREQLIIATADLSGATKGQLEAWQENAMFDTGRYRRKKIRYRDEVTGKMITRDNPPIPGKQSLAKGTSIPLVSPVEFSTSSWRRAVLSLEEHYKAWLLWCYSGSICWEYQIAITQWAWNEFNAQSGTRKIAGKTQERLKKLIWLAAQAVKAELFGGEGYEYQELALLAGVTTKNWSKTFTRHWVAMKHIFHRLDSEALLFVMRTRSKKRRHFQSKVLQK | not soluble |
| MAHHHHHHSGMSGMRVYLGADHAGYELKQRIIEHLKQTGHEPIDCGALRYDADDDYPAFCIAAATRTVADPGSLGIVLGGSGNGEQIAANKVPGARCALAWSVQTAALAREHNNAQLIGIGGRMHTVAEALAIVDAFVTTPWSKAQRHQRRIDILAEYERTHEAPPVPGAPA | soluble |
| MESTAPNAPTEEAPEPTPFVFEFKNNHIKLIELHVYTDSMEILLIGNDGNRYEVEIQEYPGEACIEQISLNRVLVQKKECTSMYPSAPIAIVTLYSILRQPGVKVDCFYYRILNQYFVRDKNNKTEHAKWDERSASLTKMLKAMMRALMKKLEVEVFKIVYNGKEEEVMCLLPYFEPGYLRRICLFNPLYVSPTVIDNIITTEQWKQAKELNTMTGEPVAFPVESHAHFESLRIRIPELKQIDVILLVLKYLNQKTPKDNEIGVQNVSELFDFMWGSMGIPHENDPETIRYTWKSGTYNLYAEVTKNGVRFTSETRQA | not soluble |
| MTLVSIVAPNLIEQGKVMEMLQGGRDNAIYRTGDRVSRPASSWTMTVHQLLNHLHSNGFTQCPKVIGIEGGKEWLSFVEGDTFNYPLQGSIASVTALLSAAKMLRRMHDASEDFLISHQSEVCHWMLPDRVPQEVICHGDFMPYNVALNGETVVGVFDFDTAHPAPRLWDVAFSIYGWAPFKTDENDRMGNLEQQIQRAKLFCDAYGCSKLERENLVDVMTLRLTALVDYMRLMASSRDERFQANLEEGHHIAYLQDIDYLRQHHQAITLGMLKER | not soluble |
| MGSDKIHHHHHHVCSELAKDVPTNMSIKMPSLTPSSLSSLIPSSVPSEVQNVQGKDCMKEAIGADKIARQFSQAAKHYQEHDKVQRLSAQRLRTKMTPIGRLLDIGCGPGTDFSAAPGLNEVLGLDIAPGMLSQMLESFPSYKALCGDAQALPLSDASIDTLYSNLALQWCSDIKTAIGELARVLKPGSQCHLAIVVDGSLSELDALGLRVNAFEQAQTLLDGFSDSHWQIEHHSVEPLRVHFDDLKTLLYSIKGVGASAAMGSDVSQGSDVTQDSDASHGPDDTQGSVSKPPPRLRGRQDWLALCERAEKMRQPEGLPLTYQILFIHASRRG | not soluble |
| MEKNMKIELITIKEFIEQAECYFRNYMDGLRRNAPDDFYYFLNNKYNMNDIMESIIKKTRYHFYDDTEEGKRNRIYGEVNHCKVKQHLRQLWIVYKCVYR | soluble |
| MSLKSYRPIELAKMFNLHSNTIRFYESIGYISKASRKPNGYREFTDKHILQLTICRHILGYRYTNRHIRDTGKLIIICSAESKLIEGKQYAQDYIKIIQNEIEIAEKTAQLLHKWAELKRDTDNSDSIEKFYTRNEVACLLGVTSEAVRNWERNDLIKSDKRGYRNAVLFNNIDLDRIRIIYMLRQTGYSMSAIHRCLMVYDKGQTELVVAALNKTDERELLSVGDCWLSELKKLESAAEEIPLIFDKLKESEGHHHHHH | soluble |
| MSASFSNNACYMDVMIEIISLRLRLAIASSDRVPLWPFPSRQYMPTRPGWSRWRHPTVVVEPMRNQNFSYHKCNNKIDSSKHISTLSH | not soluble |
| HKQLNFVDLYYHPVLADMAALLSQKNVFKAIYTFVPRTDDMGDKPALFVIHSGNTGSDVYRPLFTGIKRPSFPIYVIEPHNLLNPEDQIYGIENLAKYYLQMINKFLPESSKREINLMGWSYGGVVASEMCYQLEHETSLLHVNQLTVLDSSFYLSSEDLQRVRKREANGFYAKYFTETHIFEGMDKKNVTTERLIANNHQVCEDLFNYHSKQVNVATTFVRSMVEENPLTDEQIKLLFKHVTIKNVYDGHDYLFVHESSRSLIQDVLGLAA | not soluble |
| MGSDKIHHHHHHMNRGCFDIAVITDREAFQAILDEWNQLADINGYYTPWFCWEWFDLCLRHGETRALHILMVRSGGSLVAVAPFTVRSERYKGVVPARILSSIGGNRSPLKGIVFGDADENMQREVTTLVLEYLRTTFKNWDILELEPVAGSNDGNSIETLIERQGLSFRSYISCANRYCDVADASFDGFFERLPQSTRKDINYCRRRLEKNGSLVFQIITDAASLDQCLDVYDAVRAKSWKAAEKDREFNRELMHVAAGKGWLRLGILSYDGTPIAVQKWIVANGRAYIYDVLYDEEYKKHSPGKILTSMMFQHAIDNERVAYVDYLRGDEPYKEEWTPSLRNRIGIEAYNKSVLGCTASILMKKILPLVKKNTDSTNAHK | not soluble |
| MSLSWLGNDDRRKKDPEVFQTVSDGLKKLYKTKLLPLEEYYRFHEFHSPALEDADFDNKPMVLLVGQYSTGKTTFIRYLLEQDFPGMRIGPEPTTDSFIAVMQGDVEGIIPGNALVVDPKKPFRKLNAFGNAFLNRFVCAQLPNAVLESISVIDTPGILSGEKQRISRGYDFAAVLEWFAERVDRIILLFDAHKLDISDEFSEVIKALKNHEDKMRVVLNKADQIETQQLMRVYGALMWSLGKIVNTPEVIRVYIGSFWSHPLLIPDNRKLFEAEEQDLFRDIQSLPRNAALRKLNDLIKRARLAKVHAYIISSLKKEMPSVFGKDTKKKELVNNLAEIYGRIEREHQISPGDFPNLKKMQDQLQAQDFSKFQPLKSKLLEVVDDMLAHDIAQLMVLVRQEETQRPVQMVKGGAFEGTLQGPFGHGYGEGAGEGIDDAEWVVARDKPMYDEIFYTLSPVDGKITGANAKKEMVRSKLPNSVLGKIWKLADIDKDGMLDDEEFALANHLIKVKLEGHELPSELPAHLLPPYKRKVSEGHHHHHH | soluble |
| MLLPEPTTLRHVLIDGTIPQVATDEALIKDFGHPYEYAFNRTPQGYQVRWNTPKGVYILDAVVAAHIDPDDQWYWHQQFAFAIPELAEGPHHSSEELLTAARTLNGNGPAYLVPTEDGHTDVIVATPSFPQLPLAHALTLGLGQARNNNLTDDEIRRAIIAFAAQNDYSVAEDGLILCVRSDNGEQAHVDIARLKVRDLQSTTPQLRLTDVLADATFVAAEHQLLLNGRFPDARATTNDDCSVVTLTTPTGQTLRARALLIATLRGETLQWSWADPAVCDLPGAKAALGVKNFAIDNGLGMLLGQVDAATALSQRLYDAAKPVSRFWTDVRVPLSDGSTAIMLVDASELRLPPPSHAAVFATLHETVPHGRDIRRALSYYGAFRRITIDDVDYRRVRVHAPSAPIQVSMDACGRVCSIV | not soluble |
| MSLKKITGDDVLIPLETPESMHKEYIQNYLNLTRNTGNLMLFAGDQKIEHLNEDFYGKDISKDDADPEHLFKIAENSKIGGFAVQFGLLSRYGRDHKDINYIVKLNSKTNLVDTNQKDPLSRALLDINDILEFKKNSGINIVGVGYTIYLGSEYESEMLSEASKIIYEAHKGGLVVILWIYPRGKAVKDEKDSELISGATGVAACLGADFVKVNYPKSENPAESFKEAVMAAGRTKVVCAGGSSTDIESFLKQLYEQIHISGASGNATGRNIHQKSLSDAVSMCNAIYAITIDGKTVSEALNIYNERKSEGHHHHHH | soluble |
| MTDLSRMQGFADSAIPALEGRFFRPPLPEGYVPRSRLCQRLNEGLGGRLLLVCAPAGFGKSSLAVEFCQGLPDQWQNVWLGLSARDSEPGRFLERLLGSLQQFFPQLGAQAMGLLKMRQRHQPFAFEEWLDSLLDELAMHLMLSKPLLLVLDDYHLAQGPVLDRCLQFFLNHLPAGLVVMVTSRQRPDWHLARLRLTRQLLEINEQDLRLTQAESMAVLDRHSRSLDSEALQSLILRSEGWVAGLRFWLLAASEAGDESALSQALRGSEVLIREYLLEEVIDCLPADVQAFLYDTACLERFCAELCNAARDSHDSVEMLRYLQAHQVFLVPLDEQGRWFRYHHLFSDLLRARQTADAQTTRLHLNACRWFSAQGQLDEAVEQALRAGHLDVAANLVQNLSEEQLLAEQNVGMLLRWKMDLPDDLLTSTPRLIVLYAWALGLACQLDAAEELANQLSRFLPAPSATAQKSMLAQWLALSGIIARGRGDSEKTERYCREALLTLPQRRYGQRLVCLSTLANLAVAEGDLWQARVLNRDALELAQRVANPLFEALAHYDRARVLQARGEIIRALEEVRQGQQRLKGLSTVRLYAVRARLTLYEGYLLALRLQVDEGRALLLAGLAEARACRDISVLIGHCVIATMEGFAGRFAEAFAELAEAERLMHIWDVPPIYYLAMITLVKCELWLIQGRIDLAEAWLLRLTQTYNGGLGAAAPECHPQLSQHIELQRAVLERIQGDEVASEQRLQALEQRAQEVGAQLLRLIAMTQQIALLLNQGRQDEARTLLIRSVQASAGGALLPFRVLLAEHSQWLHEQLQLAPSCKLCNALREKFPACFKPAAPEPAHGSDCLSVRELGVLRLIAQGCSNQEISEQLFISLHTVKTHASHINSK | not soluble |
| MGSDKIHHHHHHMPGASPWRALVGGVKGQPQGTGMDRIGPAERPILSEGAKRVTADLLQTINTIYDCVGDELDHHRCLAAIGEAVDGTSLSVGEVFPFFGRIRLIANYCVPEDAARIMVDSFSTIESNSFMKNLPRFPEGVPFMRRTFVSDEEHYQSDIYKLASEPWGLHSEGATIFSKSIVSAKFCGFFRLPGKAELDIHDLSKLAILNGHYMKAMKFQDRISGLETALLRANNVLDLLDFGLLLFGDQKSPLYVNQAAHRILEKSDVMSLGRDGLIFSSSKSQNHYEKIFSSVVGSRSSPTKGTGGLVQVSPASFRRPYNVVVQPISSHQTGVADATIGVLIFDPNAKRTTAIELFSTSYGLTKKETQLALHLAEGLSVDEYAKSHNVSINTVRTHVRSIYEKTNTTRQPELVSLILRLTAGLNWT | not soluble |
| YIYRLGKEKEKNDRLIQSITINQMEARQNEEIINSTHSLRVFKHDIMNHMSILYKLVENGKNSDALKYIYQINNSIERTSYTISTGIIPIDCIMTAKLSKALDNNISIKHQIHFPANYNISDMDLCSLISNLLDNAIEANCKLDMTKRRLQIEIKPYNNMLLLFISNSSNGIYLYGGNGNLLTTKTSNKNEHGIGIKRINEIVKKYNGIIEFDPGTEIFSVSILFPLDN | not soluble |
| GMSEALSDSGLPPVQRVVTGHDAHGRAVFKSEDVTPTRMIPSGDASFLLVWTTATVPADNNDETDGRQREAGLTLDGGSVIRVVDMLPGKESPMHRTNSIDYGIVLEGEIELELDDGAKRTVRQGGIIVQRGTNHLWRNTTDKPCRIAFILIEAPAYLHNGQPLPEDKPDHK | soluble |
